Assay results: patent publication US20210155670A1, “SYSTEMS AND METHODS FOR THE PREPARATION OF PEPTIDE-MHC-I COMPLEXES WITH NATIVE GLYCAN MODIFICATIONS” (The Regents of the University of California, priority 2019, published 2021)

Molecular target: T cell receptor specific for HLA-A*02:01/NYESO, on Jurkat cells / NY-ESO-1 specific T cell line
Test: flow cytometry, PE tetramer staining; the negative cells are said to have lost the TCR

CHO-derived PE-HLA-A*02:01 tetramer loaded with NY-ESO-1 peptide (single-chain complex, TAPBPR-exchanged) (peptide-MHC)
tetramer-negative population of cells: 9%

conventionally refolded NYESO/HLA-A*02:01 tetramer (from UniProt P61769 21-119) (peptide-MHC)
tetramer-negative population of cells: 9%
